In test [1] the target is FcγRIIIa (UniProt P08637). Kind of test: cell-based or functional assay.
For test [2], the target named is human FcγRIIa-H variant (Histidine at amino acid 131) (human) (UniProt P12318). The test can be described thus: cell-based or functional assay.
human FcγRIIa-H variant (Histidine at amino acid 131) (human), sequence (P12318 34-317, change not shown): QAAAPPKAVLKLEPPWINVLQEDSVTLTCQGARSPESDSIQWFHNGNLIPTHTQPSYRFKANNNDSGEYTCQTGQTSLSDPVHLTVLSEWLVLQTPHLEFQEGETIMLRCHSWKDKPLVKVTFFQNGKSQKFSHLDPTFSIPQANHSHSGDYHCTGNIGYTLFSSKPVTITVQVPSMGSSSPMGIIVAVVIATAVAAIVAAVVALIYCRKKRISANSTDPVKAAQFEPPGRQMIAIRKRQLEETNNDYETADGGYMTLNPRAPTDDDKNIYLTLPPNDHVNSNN

FcγRIIIa, sequence (P08637 17-254 F176V limits assumed): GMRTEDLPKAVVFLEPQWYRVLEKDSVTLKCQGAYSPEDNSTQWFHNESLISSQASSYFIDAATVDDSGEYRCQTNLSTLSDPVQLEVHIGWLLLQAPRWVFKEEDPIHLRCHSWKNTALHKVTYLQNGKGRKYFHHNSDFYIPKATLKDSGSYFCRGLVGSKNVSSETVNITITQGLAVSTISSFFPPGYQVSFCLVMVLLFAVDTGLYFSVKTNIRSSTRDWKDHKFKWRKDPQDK

Consider “obinutuzumab monoclonal antibody, fucosylated”, for which, in test [1], the EC50 (nM) Mean, FcγRIIIa signaling in ADCC reporter assay (Raji target cells, Jurkat/FcγRIIIa effector cells, luciferase) stood at 0.08 nM. Besides, in test [2], the EC50 (nM) Mean, FcγRIIa signaling in ADCP reporter assay (Raji target cells, Jurkat/FcγRIIa-H effector cells, luciferase) came out at 7.1 nM.
In test [1], “avelumab (Bavencio) monoclonal antibody, fucosylated” returned an EC50 (nM) Mean, FcγRIIIa signaling in ADCC reporter assay (HEK-PD-L1 target cells, Jurkat/FcγRIIIa effector cells, luciferase) of 0.049 nM.
